B1: INTS4 (parent)
chain: IRLVDDAFGKICHMVSDGSWVVRV
B2: ZNF8 (parent)
chain: RTHTGEKPYTCSVCGKSFSRTTCL
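Note: lentivirally expressed fusions sorted by FACS into six bins by GFP to DsRed ratio, PSI derived from sequencing read proportions per bin multiplied by bin number.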

Variants of: B1
Experiment: protein stability index of a GFP-peptide fusion (GPS, HEK-293T) (PSI 1-6); higher = more stable
Conditions: c terminus: a fixed tail appended
D6V showed a protein stability index of 2.35. Work on D6M yielded a protein stability index of 3.24. D6N showed a protein stability index of 4.84. D6E gave a protein stability index of 3.96. D6R gave a protein stability index of 2.21. D6Q showed a protein stability index of 4.08. D6G gave a protein stability index of 2.84. With D6W the protein stability index was 2.88. Work on D6L yielded a protein stability index of 1.98. For D6T, the protein stability index was 3.69. With M14N the protein stability index was 5.13. For M14D, the protein stability index was 4.2. Variant M14I has a protein stability index of 2.62. For M14P, the protein stability index was 2.76. Variant M14T has a protein stability index of 3.71. For M14Q, the protein stability index was 1.49. For M14R, the protein stability index was 1.53. For M14S, the protein stability index was 2.48. M14V gave a protein stability index of 4.58. M14H showed a protein stability index of 3.19. M14A gave a protein stability index of 2.75. Work on M14F yielded a protein stability index of 3.85. Variant M14Y has a protein stability index of 1.64. Work on F8K yielded a protein stability index of 2.31. With F8I the protein stability index was 2.78. F8R showed a protein stability index of 2.46. Work on F8W yielded a protein stability index of 3.06. In the case of F8G, the protein stability index is reported as 1.6. Variant F8Q has a protein stability index of 2.5. Work on F8D yielded a protein stability index of 4.44. With F8P the protein stability index was 2.54. Work on F8C yielded a protein stability index of 2.59. For F8Y, the protein stability index was 2.45. F8E gave a protein stability index of 3.82. In the case of F8M, the protein stability index is reported as 2.69. In the case of F8H, the protein stability index is reported as 2.19. F8S showed a protein stability index of 3.94. With G9P the protein stability index was 3.75. Work on G9V yielded a protein stability index of 2.6. With G9F the protein stability index was 3.37. G9M gave a protein stability index of 2.96. Work on G9Y yielded a protein stability index of 3.11. Variant G9K has a protein stability index of 1.85. For G9R, the protein stability index was 2.17. Work on G9E yielded a protein stability index of 1.14. With I1A the protein stability index was 2.67. For I1E, the protein stability index was 2.77. Variant I1M has a protein stability index of 3.29. With I1P the protein stability index was 2.78. I1T showed a protein stability index of 3.21. I1C showed a protein stability index of 2.39. Variant I1N has a protein stability index of 3.6. With I1H the protein stability index was 3.54. For I1F, the protein stability index was 4.01. For I1Q, the protein stability index was 3.89. With I1K the protein stability index was 3.49. I1Y gave a protein stability index of 2.87. Variant V4A has a protein stability index of 3.46. With V4Y the protein stability index was 2.46. In the case of V4S, the protein stability index is reported as 2.82. V4P gave a protein stability index of 2.57. V4L showed a protein stability index of 4.43. Work on V4F yielded a protein stability index of 2.26. In the case of V4N, the protein stability index is reported as 1.36. In the case of V4C, the protein stability index is reported as 2.16. Variant V4R has a protein stability index of 1.47. In the case of V4M, the protein stability index is reported as 4.21. Work on V4I yielded a protein stability index of 3.33. Work on V4T yielded a protein stability index of 1.88. V4K gave a protein stability index of 3.23. I11Y gave a protein stability index of 3.31. For I11C, the protein stability index was 2.87. With I11N the protein stability index was 2.3. In the case of I11Q, the protein stability index is reported as 2.63. Work on I11H yielded a protein stability index of 3.47. I11S gave a protein stability index of 2.87. I11V showed a protein stability index of 3.14. In the case of I11M, the protein stability index is reported as 2.41. D5I showed a protein stability index of 2.67. In the case of D5Y, the protein stability index is reported as 3.78. With D5R the protein stability index was 1.8. For D5T, the protein stability index was 3.23. D5C showed a protein stability index of 3.07. In the case of D5K, the protein stability index is reported as 3.01. With D5A the protein stability index was 2.73. Variant D5L has a protein stability index of 3.22. Variant D5G has a protein stability index of 3.16. For D5F, the protein stability index was 4.33. In the case of D5V, the protein stability index is reported as 2.32. Variant D5S has a protein stability index of 2.3. In the case of D5P, the protein stability index is reported as 2.53. For L3C, the protein stability index was 1.72. With L3W the protein stability index was 1.97. Variant L3R has a protein stability index of 2.08. Variant L3V has a protein stability index of 3.33. L3E showed a protein stability index of 3.14. With L3I the protein stability index was 3.47. Work on L3H yielded a protein stability index of 2.17. Work on L3F yielded a protein stability index of 2.76. In the case of L3A, the protein stability index is reported as 3.09. For R2M, the protein stability index was 2.78. Variant R2V has a protein stability index of 4.66. R2S showed a protein stability index of 2.96. Variant R2F has a protein stability index of 4.79. Variant R2A has a protein stability index of 3.67. H13G gave a protein stability index of 2.97. H13S showed a protein stability index of 1.3. With H13I the protein stability index was 3.17. H13Y showed a protein stability index of 2.38. H13A gave a protein stability index of 3.2. In the case of H13M, the protein stability index is reported as 3.09. H13D showed a protein stability index of 3.12. For H13P, the protein stability index was 2.63. For H13K, the protein stability index was 3.46. A7W showed a protein stability index of 3.37. A7F gave a protein stability index of 2.22. In the case of A7M, the protein stability index is reported as 2.62. With A7G the protein stability index was 2.95. For A7K, the protein stability index was 2.09. A7D gave a protein stability index of 2.86. In the case of A7S, the protein stability index is reported as 4.46. Work on A7L yielded a protein stability index of 3.62. K10P gave a protein stability index of 2.29. K10F gave a protein stability index of 2.4. In the case of K10C, the protein stability index is reported as 3.27. For K10I, the protein stability index was 2.57. Variant K10R has a protein stability index of 4.19. Variant K10L has a protein stability index of 2.96. Work on K10N yielded a protein stability index of 1.78. Work on K10G yielded a protein stability index of 2.29. In the case of C12N, the protein stability index is reported as 2.44. Work on C12P yielded a protein stability index of 3.97. For C12T, the protein stability index was 2.91. Variant C12D has a protein stability index of 3.58. In the case of C12Q, the protein stability index is reported as 2.82. With C12W the protein stability index was 3. C12H gave a protein stability index of 2.35. For C12F, the protein stability index was 1.73. C12G showed a protein stability index of 5.66. Work on C12K yielded a protein stability index of 4.92. C12R showed a protein stability index of 4.2. Work on C12A yielded a protein stability index of 3.65.

Variants of: B2
Experiment: as above
Conditions: c terminus: a fixed tail appended
For L24V, the protein stability index was 3.06. Variant L24I has a protein stability index of 2.8. L24P showed a protein stability index of 3.17. Work on L24C yielded a protein stability index of 4.72. With L24E the protein stability index was 3.28. Work on L24K yielded a protein stability index of 2.76. Work on L24A yielded a protein stability index of 2.56. L24M showed a protein stability index of 2.87. In the case of L24S, the protein stability index is reported as 2.06. L24Q showed a protein stability index of 2.96. With L24D the protein stability index was 3.21. L24R gave a protein stability index of 2.73. Variant L24N has a protein stability index of 3.03. In the case of L24Y, the protein stability index is reported as 2.48. Variant L24H has a protein stability index of 3.46. Variant L24T has a protein stability index of 3.08. L24F gave a protein stability index of 2.06. L24W gave a protein stability index of 2.8. C23W gave a protein stability index of 1.78. Variant C23T has a protein stability index of 2.1. C23R showed a protein stability index of 1.84. In the case of C23Q, the protein stability index is reported as 2.24. C23V gave a protein stability index of 1.59. With C23Y the protein stability index was 2.57. For C23S, the protein stability index was 2.03.

From the supplement of paper PMC10567573
